Experiment: soluble on expression in E. coli; label from the status in PepcDB or PDB records

Sequence | soluble on expression in E. coli
DEILIDPHAVLGPVDPQLMNYPAPSILKVVEKKEPKDIDDKTLIMADIAEKAINQVRETVFNLLKDKMDEEKAREVAKILTEGRWTHDYPLTVEELRQLGLKVSTDVPEEVYELMELYPQPMMQRHPGVEFVPSPPKGEKPSFK | not soluble
VVQAPTQVPGFLGDSVTLPCYLQVPNMEVTHVSQLTWARHGESGSMAVFHQTQGPSYSESKRLEFVAARLGAELRDASLRMFGLRVEDEGSYTCLFVTFPQGSRSVDIWLRVLAKPQNTAEVQKVQLTGEPVPMARCVSTGGRPPAQITWHSDLGGMPQTSQVPGFLSGTVTVTSLWILVPSSQVDGKQVTCKVEHESFEKPQLLTVSLTVYY | soluble
MKKIHPSAVIEEGAQLGDDVVIEAYAYVSKDAKIGNNVVIKQGARILSDTTIGDHSRVFSYAIVGDIPQDISYKEEQKSGVVIGKNATIREFATINSGTAKGDGFTRIGDNAFIMAYCHIAHDCLLGNNIILANNATLAGHVELGDFTVVGGLTPIHQFVKVGEGCMIAGASALSQDIVPFCLAEGNRASIRSLNLVGIRRRFDKDEVDRLSRAFKTLFRQGDLKENAKNLLENQESENVKKMCHFILETKRGIPVYRGKNNA | soluble
MLLSTKSKKLIRTQYFTTPGILMRGRSHPVGDFKVQNKNPHFNDISVGKRIRYRRKMLGLSQKQLGHSLGVTFQQIQKYEKGINRVGAGRLQEIATLLDVSISFFYADISTKEHVSYPRNKGISNKEEDFLLKSFRELKPKKQKAILCLLSD | not soluble
MNGGEKLESIPIDLIIEIHSRLPAESVARFRCVSKLWGSMFRRPYFTELFLTRSRARPRLLFVLQHNRKWSFSVFSSPQNQNIYEKPSFVVADFHMKFSVSTFPDFHSCSGLIHFSMMKGAYTVPVVCNPRTGQYAVLPKLTRTRYENSYSFVGYDPIEKQIKVLFMSDPDSGDDHRILTLGTTEKMLGRKIECSLTHNILSNEGVCINGVLYYKASRIVESSSDDDTSDDDDDDHERSDVIVCFDFRCEKFEFIVICFYGQLINSVQLSLKQKSHQKLDLII | soluble
MRKTLTALFIAAALPTFAMAAPAANDLPPPPMEGGHMMGQHGPRHGGPMKELDLTREQRQQMGKLMGEQMKARHEITQRYLAKLPAAEQKALKDELKASHEKTQKDIRALLTPEQQKKFDELQKKREQRKAEWAEFQQWKADKKSNLEHHHHHH | soluble
MKMFNIASEDDIKKGLASDVYFERSISTLTETCKDHRVAMEATVSGPLDTWINFSGLDEVLKLLEGIDVDVFAIPEGTILYPRDSNGIPVPFIRIEGNYCDFGMYETSILGMICQASGISTKSSKVRIAAGDCPFFSFGIRRMHPAVSPMIDRSAFIGGADGVSGILGAKLIGEEPIGTMPHALSIILGDDEAWRLTLKNTKNGQKSVILIDTYMDEKFAAIKVAEEFEHVDYIRLDTPSSRRGNFEALVREVKWELALRGRSDIKIMVSGGLDENTVAKLREAGAQAFGVGTSISSAKPFDFALDIVSIDDKPKTKRGKLSGKKSVLRCEKCRKVEVVPYGVESKPCSCGGVMHNIIVKYMEHGKLLSQYPEPKEIRKRTLSELEYFRSSN | soluble
MGSDKIHHHHHHMRVLLLSDIHSSTQNLEKILKAAEYDAVFIAGDLTQFRPKDAKVVDEIISEQTDSCLAVHGNCDHEAILGEKYKALKFIHGKSVEFDGYTVHGVGGSGITPFNTPSEYTEREILEIMDNFVLRDFNILLSHCPPKGFLDRTYSGVHAGCEAIRERMIEFDVILCGHIHESHGVVDSPQLIVNPGPVMWGRFAVIDVEKKVVELRKL | not soluble
GAMGMTTYLEFIQQNEERDGVRFSWNVWPSSRLEATRMVVPVAALFTPLKERPDLPPIQYEPVLCSRTTCRAVLNPLCQVDYRAKLWACNFCYQRNQFPPSYAGISELNQPAELLPQFSSIEYVVLRGPQMPLIFLYVVDTCMEDEDLQALKESMQMSLSLLPPTALVGLITFGRMVQVHELGCEGISKSYVFRGTKDLSAKQLQEMLGLSKVPVTQATRGPQVQQPPPSNRFLQPVQKIDMNLTDLLGELQRDPWPVPQGKRPLRSSGVALSIAVGLLECTFPNTGARIMMFIGGPATQGPGMVVGDELKTPIRSWHDIDKDNAKYVKKGTKHFEALANRAATTGHVIDIYACALDQTGLLEMKCCPNLTGGYMVMGDSFNTSLFKQTFQRVFTKDMHGQFKMGFGGTLEIKTSREIKISGAIGPCVSLNSKGPCVSENEIGTGGTCQWKICGLSPTTTLAIYFEVVNQHNAPIPQGGRGAIQFVTQYQHSSGQRRIRVTTIARNWADAQTQIQNIAASFDQEAAAILMARLAIYRAETEEGPDVLRWLDRQLIRLCQKFGEYHKDDPSSFRFSETFSLYPQFMFHLRRSSFLQVFNNSPDESSYYRHHFMRQDLTQSLIMIQPILYAYSFSGPPEPVLLDSSSILADRILLMDTFFQILIYHGETIAQWRKSGYQDMPEYENFRHLLQAPVDDAQEILHSRFPMPRYIDTEHGGSQARFLLSKVNPSQTHNNMYAWGQESGAPILTDDVSLQVFMDHLKKLAVSSAA | soluble
AQARMGDSRDLCPHLDSIGEVTKEDLLLKSKGTCQSCGVTGPNLWACLQVACPYVGCGESFADHSTIHAQAKKHNLTVNLTTFRLWCYACEKEVFLEQRLAAPLLGSSSKFSEQDSPPPSHPLKAVPIAVADEGESESEDDDLKPRGLTGMKNLGNSCYMNAALQALSNCPPLTQFFLECGGLVRTDKKPALCKSYQKLVSEVWHKKRPSYVVPTSLSHGIKLVNPMFRGYAQQDTQEFLRCLMDQLHEELKEPVVATVALTEARDSDSSDTDEKREGDRSPSEDEFLSCDSSSDRGEGDGQGRGGGSSQAETELLIPDEAGRVISEKERMKDRKFSWGQQRTNSEQVDEDADVDTAMAALDQPAEAQPPSPRSSSPCRTPEPDNDAHLRSSSRPCSPVHHHEGHAKLSSSPPRASPVRMAPSYVLKKAQVLSAGSRRRKEQRYRSVISDIFDGSILSLVQCLTCDRVSTTVETFQDLSLPIPGKEDLAKLHSAIYQNVPAKPGACGDSYAAQGWLAFIVEYIRRFVVSCTPSWFWGPVVTLEDCLAAFFAADELKGDNMYSCERCKKLRNGVKYCKVLRLPEILCIHLKRFRHEVMYSFKINSHVSFPLEGLDLRPFLAKECTSQITTYDLLSVICHHGTAGSGHYIAYCQNVINGQWYEFDDQYVTEVHETVVQNAEGYVLFYRKSSEEAMRERQQVVSLAAMREPSLLRFYVSREWLNKFNTFAEPGPITNQTFLCSHGGIPPHKYHYIDDLVVILPQNVWEHLYNRFGGGPAVNHLYVCSICQVEIEALAKRRRIEIDTFIKLNKAFQAEESPGVIYCISMQWFREWEAFVKGKDNEPPGPIDNSRIAQVKGSGHVQLKQGADYGQISEETWTYLNSLYGGGPEIAIRQSVAQPLGPENLHGEQKIEAETRAV | soluble
GSMTHYDVVVLGAGPGGYVAAIRAAQLGLSTAIVEPKYWGGVCLNVGCIPSKALLRNAELVHIFTKDAKAFGISGEVTFDYGIAYDRSRKVAEGRVAGVHFLMKKNKITEIHGYGTFADANTLLVDLNDGGTESVTFDNAIIATGSSTRLVPGTSLSANVVTYEEQILSRELPKSIIIAGAGAIGMEFGYVLKNYGVDVTIVEFLPRALPNEDADVSKEIEKQFKKLGVTILTATKVESIADGGSQVTVTVTKDGVAQELKAEKVLQAIGFAPNVEGYGLDKAGVALTDRKAIGVDDYMRTNVGHIYAIGDVNGLLQLAHVAEAQGVVAAETIAGAETLTLGDHRMLPRATFCQPNVASFGLTEQQARNEGYDVVVAKFPFTANAKAHGVGDPSGFVKLVADAKHGELLGGHLVGHDVAELLPELTLAQRWDLTASELARNVHTHPTMSEALQECFHGLVGHMINF | soluble
MLPYMAYRYVKNKREKNQREMDSDLDSMVRSIVPDKTVICVPNVAAKLGEDSKEYIPGTLSIVEKSSGVFIEWKPSEDAETSWVMTSDDGNTEMVHARSPEEKQKCGARVAFSMDVNDLSSFRNDEPKRGSGGFPSIRLICRDGSSQVPLFFKNTTTAEFLDRLQGYITLRRSHRDSHLVIVVDQKSEALAKSVSMLDENGDILSRFMQNPYMTAMTGFSKITSFVQDQVIPSVLNDTDAVTQEEKIRLMRELRLAEEQMRVHSDAAGEFEVVTQLELPPRPEIYRELPVSKDLWNSFKLSNGSYDPMKLHHLKMNVFRGGLNAELRKEAWKCLLGYRQWHESDTDFQTRRAELAKQYENMKKQWMSVTEDQEKRFTKFVKRKSLVGEEIEND | not soluble
LWGIFVEQADGHYRVRLRSKIHPINEIAKEHDGGGHPLASGANSYSLEENEIIY | soluble
MGSDKIHHHHHHMANNIQGFVMIGAQAIVFSITNLRTLKTIERGRYPVAIGDDFYAEHEILPDTVDAIVQAFDAINQIFKDYGVPTVNVFASTSWAEADNAEFVRDQLYTRTGWLIKTTSLSEEAFFRTQAIMVKFPQFKSITQKGTVLIDISSGSVELTTFSNGVFGFSRNLSLGPLRVYEIMSDVQRSVTNYVEVMRDYIDSRLLDFMRLLPQGVEYTNMILMGSNLSIFQNIIPEGKHQVETDRPGFDLLYDEVTKASDQYLADTYDLTSDQTSLVLPTVLLVYRLVETLNSQSIWISDLKAIDGIEVNAAHEGGFKKLGFDPNEEIVISANNLAERYQVDEAHMQATRTVALQLFDRLKKLHGMGKRERLLLEVAATVSDIGSYIETHKHYAHSNYIIKASEIMGLNDLEVTMVATITRFHSSITPQSDLKNFPTMSTENRLVVAKLSALLRVADSLDASRQQKIQQLRVSVKPNEVLLTARADDDIELERWTLARKGKFFSEVFGLGLELKGRNIL | not soluble
MSEITLGKYLFERLKQVNVNTVFGLPGDFNLSLLDKIYEVEGMRWAGNANELNAAYAADGYARIKGMSCIITTFGVGELSALNGIAGSYAEHVGVLHVVGVPSISAQAKQLLLHHTLGNGDFTVFHRMSANISETTAMITDIATAPAEIDRCIRTTYVTQRPVYLGLPANLVDLNVPAKLLQTPIDMSLKPNDAESEKEVIDTILVLDKDAKNPVILADACCSRHDVKAETKKLIDLTQFPAFVTPMGKGSIDEQHPRYGGVYVGTLSKPEVKEAVESADLILSVGALLSDFNTGSFSYSYKTKNIVEFHSDHMKIRNATFPGVQMKFVLQKLLTTIADAAKGYKPVAVPARTPANAAVPASTPLKQEWMWNQLGNFLQEGDVVIAETGTSAFGINQTTFPNNTYGISQVLWGSIGFTTGATLGAAFAAEEIDPKKRVILFIGDGSLQLTVQEISTMIRWGLKPYLFVLNNDGYTIQKLIHGPKAQYNEIQGWDHLSLLPTFGAKDYETHRVATTGEWDKLTQDKSFNDNSKIRMIEVMLPVFDAPQNLVEQAKLTAATNAKQ | soluble
MELDDALDELSDSLGQRQPDPDENKPLDDKVKEKIKAEHSEKLGERDDTIPPEYRHLLDNDGKDKPEKPLTKNTEKPGQDQDPIDALSEDLDSCP | soluble
MGSDKIHHHHHHMIKITQVRDGGNHVTQSTLTLDAWVERMKEEVKTCPVTMFRSQLRHVLPGDHCEAADKLPKMMPAAEFRKTEGGQCMKAYNGLVELTVGPLAGRAEVEQVKREAWKLPQTRCAFMGASGHSVKILVAFTRPDNTLPLTRAEAEAFHAHAYIMAVKCYQPQLSFDIRPKEPFLEQYSRLSYDPDVLYRPDSVQFYLSQPMGMPDEMALHTEPAVSGQRPLERALGSYETADALSMLFEAALRQAYIDLDKPDPADEKSSYSWDTLLSQLALNCFRSGIPEEAVVSRARFRHFVRKPLELVRQVVRNVYSRRQDFGSKCALSREQQLSVLIAEFMKRRYEFRFNVQTGEAEFRERHSFCFRFQPVDKRALNSIALDAQAEGIPLWDRDISRYVYSNRVPVYNPLEDFLFNLPEWDGRDRIRPLAQTVPCDNPHWPELFHRWFLNMVAHWRGMDKRYANSVSPLLVGAQGTRKSTLFDFLKLYLA | not soluble
MTDNPAVDKRDQILAAAEQLIAESGFQGLSMQKLANEAGVAAGTIYRYFSDKEHLLEEVRLNVAKRIASAVQAGVNDDMPLKECYRTMWLNIWNLAGSNLNAISNRVQYDSLPCTTRNKTWELERKMFAQVDRLFNQGKEEGVFKPLDNEVLSGLSFEASVALARKHALGFYQLDDDALEAAIEASWDAIIKH | soluble

From the DeepSol protein solubility set
